Our source for the Fluorescence values is patent US20230020406A1 (published 2023).

T1: AA111-228 DNA-binding domain of RXR-alpha (UniProt P19793 111-228)
T1 construct: Bought recombinant protein (Abcam), adsorbed to the plate; also called RXRa-DBD
T1 sequence (looked up): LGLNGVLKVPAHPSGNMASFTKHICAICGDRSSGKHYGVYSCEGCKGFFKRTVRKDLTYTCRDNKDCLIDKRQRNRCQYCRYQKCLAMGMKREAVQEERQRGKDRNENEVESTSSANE

B1: immodulator peptide IM4 (peptide)
peptide: Biotin-RNGNFHPKQCHPALDGQRGKCW
modifications: cysteine pairing not given here; also: complexed with Streptavidin-Alexa 488 conjugate (SA488)
notes: Synthetic peptide
B2: immodulator peptide IM1 (peptide)
peptide: Biotin-KNGFYHSRQCETSMDGEAGLCW
modifications: cysteine pairing not given here; also: complexed with Streptavidin-Alexa 488 conjugate (SA488)
notes: Synthetic peptide with an IGFBP-derived core
B3: immodulator peptide IM3 (peptide)
peptide: Biotin-KKGFYKKKQCRPSKGRKRGFCW
modifications: cysteine pairing not given here; also: complexed with Streptavidin-Alexa 488 conjugate (SA488)
notes: IGFBP-3-derived core; also called 1M3
B4: immodulator peptide IM6 (peptide)
peptide: Biotin-HRGFYRKRQCRSSQGQRRGPCW
modifications: cysteine pairing not given here; also: complexed with Streptavidin-Alexa 488 conjugate (SA488)
notes: Synthetic peptide; also called 1M6
B5: immodulator peptide IM5 (peptide)
peptide: Biotin-RKGFYKRKQCKPSRGRKRGICW
modifications: cysteine pairing not given here; also: complexed with Streptavidin-Alexa 488 conjugate (SA488)
notes: Synthetic peptide; also called 1M5
B6: immodulator peptide IM2 (peptide)
peptide: Biotin-KHGLYNLKQCKMSLNGQRGECW
modifications: cysteine pairing not given here; also: complexed with Streptavidin-Alexa 488 conjugate (SA488)
notes: Synthetic peptide

Ends that are not written are not given here. * marks the point of attachment. Biotin = O=C1N[C@H]2[C@H](CS[C@H]2CCCCC(=O)*)N1

In this assay the target is T1, AA111-228 DNA-binding domain of …. Put plainly: plate assay: 1 ug/well RXRa-DBD adsorbed, 800 ng/well SA488-labelled peptide, fluorometer 485/525 nm. As to the method: Experiment x3A. […] 1 ug/well recombinant RXRa-DBD (Abcam, Cambridge, Mass.) was adsorbed to wells of a 96-well plate for 60 minutes at RT, then blocked with 200 uL 1% BSA in PBS buffer overnight. […] The plate was incubated for 60 min at room temperature, washed and counted in a standard fluorometer (excitation/emission 485/525 nm). Background (buffer alone) was subtracted.
In the case of B1, the Fluorescence was 27 fluorescence units (background subtracted).

As to B2, the Fluorescence was 670 fluorescence units (background subtracted).

B3: the Fluorescence is 6570 fluorescence units (background subtracted).

Consider B4, for which the Fluorescence was 587 fluorescence units (background subtracted).

As to B5, the Fluorescence was 6800 fluorescence units (background subtracted).

For the molecule B6, the Fluorescence was 2 fluorescence units (background subtracted).
